These results are taken from IntAct's records for PubMed 32066962.

To fix the notation:
B1: Repressor of RNA polymerase III transcription MAF1 (Saccharomyces cerevisiae), P41910 (parent)
chain: MKFIDELDIERVNQTLNFETNDCKIVGSCDIFTTKAVASDRKLYKTIDQHLDTILQENENYNATLQQQLAAPETNQSPCSSPFYSNRRDSNSFWEQKRRISFSEYNSNNNTNNSNGNSSNNNNYSGPNGSSPATFPKSAKLNDQNLKELVSNYDSGSMSSSSLDSSSKNDERIRRRSSSSISSFKSGKSSNNNYSSGTATNNVNKRRKSSINERPSNLSLGPFGPINEPSSRKIFAYLIAILNASYPDHDFSSVEPTDFVKTSLKTFISKFENTLYSLGRQPEEWVWEVINSHMTLSDCVLFQYSPSNSFLEDEPGYLWNLIGFLYNRKRKRVAYLYLICSRLNSSTGEVEDALAKKPQGKLIIDDGSNEYEGEYDFTYDENVIDDKSDQEESLQ
partner: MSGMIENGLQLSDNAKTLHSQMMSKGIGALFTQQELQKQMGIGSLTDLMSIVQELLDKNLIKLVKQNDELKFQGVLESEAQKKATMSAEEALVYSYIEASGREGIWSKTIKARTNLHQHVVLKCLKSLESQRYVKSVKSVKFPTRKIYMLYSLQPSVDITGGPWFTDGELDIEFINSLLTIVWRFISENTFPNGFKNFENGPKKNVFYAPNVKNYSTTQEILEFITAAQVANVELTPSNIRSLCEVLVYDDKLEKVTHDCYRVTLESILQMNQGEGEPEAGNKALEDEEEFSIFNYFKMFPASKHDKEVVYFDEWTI

This assay covers variants of B1. The settings on record: with rpc6_yeast RPC34, P32910.
For MKFIDELDIERVNQTLNFETNDCKIVGSCDIFEEKAVASDRKLYKTIDQHLDTILQENENYNATLQQQLAAPETNQSPCSSPFYSNRRDSNSFWEQKRRISFSEYNSNNNTNNSNGNSSNNNNYSGPNGSSPATFPKSAKLNDQNLKELVSNYDSGSMSSSSLDSSSKNDERIRRRSSSSISSFKSGKSSNNNYSSGTATNNVNKRRKSSINERPSNLSLGPFGPINEPSSRKIFAYLIAILNASYPDHDFSSVEPTDFVKTSLKTFISKFENTLYSLGRQPEEWVWEVINSHMTLSDCVLFQYSPSNSFLEDEPGYLWNLIGFLYNRKRKRVAYLYLICSRLNSSTGEVEDALAKKPQGKLIIDDGSNEYEGEYDFTYDENVIDDKSDQEESLQ [T33E;T34E], the “effect of a mutation on the interaction” value was “with no effect”.

Take MKFIDELDIERVNQTLNFETNDCKIVGSCDIFTTKAVASDRKLYKTIDQHLDTILQENENYNATLQQQLAAPETNQSPCSSPFYSNRRDSNSFWEQKRRISFSEYNSNNNTNNSNGNSSNNNNYSGPNGSSPATFPKSAKLNDQNLKELVSNYDSGSMSSSSLDSSSKNDERIRRRSSSSISSFKSGKSSNNNYSSGTATNNVNKRRKSSINERPSNLSLGPFGPINEPSSRKIFAYLIAILNASYPDHDFSSVEPTDFVKTSLKTFISKFENTLYSLGRQPEEWVWEVINSHMTLSDCVLFQYSPSNSFLEDEPGYSSNLIGFLYNRKRKRVAYLYLICSRLNSSTGEVEDALAKKPQGKLIIDDGSNEYEGEYDFTYDENVIDDKSDQEESLQ [L318S;W319S]: the “effect of a mutation on the interaction” value is “with no effect”. As to MKFIDELDIERVNQTLNFETNDCKIVGSCDIFTTKAVASDRKLYKTIDQHLDTILQENENYNATLQQQLAAPETNQSPCSSPFYSNRRDSNSFWEQKRRISFSEYNSNNNTNNSNGNSSNNNNYSGPNGSSPATFPKSAKLNDQNLKELVSNYDSGSMSSSSLDSSSKNDERIRRRSSSSISSFKSGKSSNNNYSSGTATNNVNKRRKSSINERPSNLSLGPFGPINEPSSRKIFAYLIAILNASYPAHAFSSVEPTDFVKTSLKTFISKFENTLYSLGRQPEEWVWEVINSHMTLSDCVLFQYSPSNSFLEDEPGYLWNLIGFLYNRKRKRVAYLYLICSRLNSSTGEVEDALAKKPQGKLIIDDGSNEYEGEYDFTYDENVIDDKSDQEESLQ [D248A;D250A], the “effect of a mutation on the interaction” value is “disrupting interaction strength”.
